Experiment: label from the status in PepcDB records

| Sequence | protein production |
| --- | --- |
| MSVETQRESLLNAPALLFMSAVVLIAFWILFPRQPAFRDPANLSAKDALSVAYLRVLVQSDPGNAPLRLSFVQVLTEAGMTDEAVLAMEPLQNAPESGLTYEIRLAELKLALQQLYRHPPRDVEASLRRRIGELVPLLLRLADNDKESNQVVLLAEQFGEPSVVAETFEQLAGMQNETRQTKSRWLAFAAKQRLAAAQPRAAAQNFCRAFTFERIARKKTELAKACLGAYLQAGVDREALKAAMQILSAYSSSNADAQLLLLAADVAQPMGDRDHALVWLEQASAHLPADQRLAERVVRLQVSMGLLSEGLARAPMLRASLIPGSERQRLLAHLYDWNGQPDEALALWLSFARHKADEEAETRAFALAQAKPDNEAIVQLLEAVMSRRKLTTTEADAYVKAGLAVAQPSRVEKQLRRHAERFGNPPPILNALVEVLVLQGKPDAALTLYEDMPEIQDGRQRLALARLYEEAGNTQKSFQLLLRDIDSPPPASAEEYWLLLAKVSTQLGQDAYAGQAYEKALALRSNDVEILENLQRLALRHHDEKKSERLARYGWERLKRIEDLQRLMRFSWKRRNWDELDQWLEVAEKLPSAAQARDYWYFQSMRRMAHGEQSAARGALQEILKLQAADPEVTEAMIWLLLAYEKIDRVLLDSVVAPYRAQTASQSTVNPALAEALAAAEQGLGRPVQAAAWFLRSLSTRAGDFLWILALADNMEWAGCPAHANYARFQALEMFASRQNSRIEVKYPSRLAEYFFGSKYLPPKREGTEDAKKQEELQSIRDQWGFGGKLDNADYFALRREVERLELSQWKDFAKAVRNRNEREVERQLALISDHLKRQPAAASHPDMLPLSIDDVDRANRWLAGEPEPNPSDLATELDICRETLTKIREFPVNSEPAKR | failed |
| MQSPNNDYNATSKRGWFTRFLDGVEWLGNLLPHPITLFAVFCLFIIFISGIAAYFGVSAVDPRDGETVIKAVSLLNAEGIQRIVTNLVTNFTGFTPLGTVLVALLGVGVAERSGLISAAMRGLVMKAPPRLVTVTIVFAGVISNTAAELGYVVLVPLAAMIFYGLGRHPLAGLSAAFAGVSAGYSANLLIGTVDPLLSGITEEAAKIIDPAYTVGAEANWYFMMVSTFLIAIMGALITDKIVEPKLGKYNKDEASIDLSDQSSMDPLNKQEKRGLIYAGLSVLVLAGILALTVVPEWGILRHPETGDVKGSPFLKGVVVYIFFFFAIPGFVYGRTVETMRNDRDVIDAMSHSMSTMGMYIVLVFFAAQFVNFFKWTNFGTIFAINGAEFLTNIGMTGPIIFLFFIMVCGFVNLMLGSASAQWAITAPIFVPMLMLVGYSPEVIQAAYRIGDSVTNVITPMMSYFGLILAVAARYKKDLGIGTLVAMMLPYSMFFFVGWSVLFFLWVFVFGFPVGPAAPTYYN | not failed |
| SLSSTELGDLFWSWLRDGLREGDIPVNTADACVHLTCGFVFISVPGVFFLFLKSHSRSCSSGLKESGRKEQVQAAFEKMRKHRVSDSRRFWQCCLYEEPGGRGRYKKLTGYLIKMSEIYANGNFPDDSLFLKVIN | not failed |
| MSNGIVIIGSGFAARQLVKNIRKQDATIPLTLIAADSMDEYNKPDLSHVISQGQRADDLTRQTAGEFAEQFNLHLFPQTWVTDIDAEARVVKSQNNQWQYDKLVLATGASAFVPPVPGRELMLTLNSQQEYRACETQLRDARRVLIVGGGLIGSELAMDFCRAGKAVTLIDNAASILASLMPPEVSSRLQHRLTEMGVHLLLKSQLQGLEKTDSGIQATLDRQRNIEVDAVIAATGLRPETALARRAGLTINRGVCVDSYLQTSNTDIYALGDCAEINGQVLPFLQPIQLSAMVLAKNLLGNNTPLKLPAMLVKIKTPELPLHLAGETQRQDLRWQINTERQGMVARGVDDADQLRAFVVSEDRMKEAFGLLKTLPM | failed |
| MSQRTSEENRYEQLHRFAAKIHSTMQIDDVLEEIICTLQNVYPAFTYHLLLSHDNHVCGNLPIKTLALDESEGQPAALRAFLTGQVQCEETAAPPRSVLYAPIKGVQAVYGVIQIIAPYAAPFPKREINFISLLAGTAGRALENAKLYEQSRRLEHHHHHH | not failed |
| MTIFRFADGNSMTTKTNLLPHIPSSDAIISRWRWLAIIVSLVMALLASAFILLLSNAVDREVAQLNTSSELREQADLVLISLIDMAVADRSYAKNHKAEDKARFEHAARNLDDILEYIELIVYAHPQWYEWFTSFKKEVEARKAFMNDHMRALDALPDQSSQPSSSSEIPKIQVARLAQLMTSFINGDDVVRQKQREGIALMRAALTLAAIVSVVSTFMSAYFVINRFHRDVRSLKMYQLLLHSENIALEARVKERTQELERARNHAEKERQRVEMLLQDVSHRIGNSLGTVSSLLGLQLNRSDNEEVRSVLGAARDRIQTISTAHRRLRLSDDMETTLLAEFLSSVVHDVELAMPLELRENITIHTNFKECRLSSRDATTLGIILGELLTNSLKHAFPDKRSGDIYISFGPQKNGQLMLIVEDNGVGMKNQTQEKKTGLGRVVVEQLCMQFGEKPLFETSALGGTKIVIPLPKLTPNASKEAYA | failed |
| LVADASPFAMLEQAPDDLISHYDLTGRLLRVSPAWSRIIGGSVAEAAGRRTWDFIAPEDHPAVAAYYADLLREGAAPSSRLRMRVRHVAGDIRVLESRPMPIRNAEGVVTGFVDIARDITEQIETERRYQLALAQAHEA | failed |
| MEQPYVYAYPQGSGPSGAPTPQAGGVVVDPKYCAPYPIDMAIVRKMMSLTDGNFVITDVNGNLLFKVKEPVFGLHDKRVLLDGSGTPVVTLREKMVSMHDRWQVFRGGSTDQRDLLYTVKRSSMLQLKTKLDVFLGHNKDEKRCDFRVKGSWLERSCVVYAGESDAIVAQMHRKHTVQSVFLGKDNFSVTVYPNVDYAFIASLVVILDDVNREDRAA | not failed |
| LETSWIKPGQASWEWWNDAAPYGPDVNFVSGYNLETYKYYIDFASKYGIRYIIMDEGWAKSTRDPYTPNAKVDVHELIRYAEKKNVGIVLWLTWLTVENNMDLFKTFSEWGVKGVKIDFMDRSDQWMMNFYERVAAEAAKYKLFVDFHGSVSPKGLEYKYPNVLSYEGVRGMEQMGGATPDNSIFMPFMRNAVGAMDYTPGAM | failed |
| MLNIKRIKKKMNARNLFATAALLFTASTAFAQTGVQTNTPFGSGEDSIRCRQNISLFTSYAKTGNYKDAYDFWEKAYEECPASTKNIYIYGVKISEWRLQNEQDPAKRQQIIDKILKLYDDRVKYFGEDPKYGTDYIMASKISDYMQYMGDKTDYDKVYEWIKPTIDQHGENATPRALFYYAYSSLNKAIRNEAWHETYIKDYTFASQAMEKQLEVADEKGKEFIQPLKTQIDELFAQSGLADCNTLVKMYGDKLEENKTDTTFLKNMLGMFHASDCETHPLYFQANKYLFAVQPSAIAAMGLAKEAMEGNRYNEASDYLQKAIELSKSAKDRAACNYTLGLLAMKQGSYSTARSYCNKALAEDPAMGDALILIAQMYAATANTVFPGDAIKARCVYFLAVDKLQRAKNIDPSCAPRANRLISQYSRNFPSPADVFMHPDLEKGKSLFVGGWIGESTVIR | failed |
| MDAYSWLLAVIILLPLISASVPIAASVRWKNVGWAIAAVVVSATFAMSVALAWMVPRAEDRLLAHQLGGVEVPIGIELFADEFSVIVLLLVLAVCLGVLVFTRIGGPRGNAFYSGFLLLVGGMMGILLTGDLFNMYVFLEIMAISSYALVSASKYRWSTYAAFKYLLVGTVGAGFYLLGVALVLASTGTLTMRLLPELLAAVGYTDPVVVAAFILMAVGLAIKIALFPVHTWLADAHASAPDGISAVISALVPAVAVYAFARVLFTVYTLDFIAANPVIGNLLLVAALFSLFAGSFFALLQDHIKLVLAYSTVSQFGLIFVGIAIANETAVFGAILQIFGHGVVKASLFVLAGMFALRFGGIRTLKEYSGVAERAPIMAGAFAVLGIAMIGLPPTVGFAGKWYIALGAFEAGLWQVSLLVLGSTLLSAGYILPFINRIYFHPFEGEDVDAAKVTTGMLIAIIIGAGIGLLLGFASAEIQAAVSTAVERLVA | failed |
| MITVLILRCIMVKSTTRKSAKSDRRRYNRIARFYDLFETPMELMNFRKWRKMLFDLIKAEKGLVLEIGAGTGKNIPHYPSNVVALDISEKMLERAVRRAKESGKKVDFLLADAENLPFRSNSFDVVFTTFVFCSVDDPVRGLREAFRVLKKGGRAYFLEHMLPKSRFLHPLFNLLNPIFRAFGPEINRRTDENIQRAGFQIVKEYMLFGSVFRLIVAEKPLDSVDEASGYSLKRSESSDSSNFRRFIGQSLLPLRLTQLLR | failed |
| MFIPQIVPIRDLKNTSAISNLCHKTNEPIFITKNGYGDMVIMSMETYEGNAFFNNLYGNLEEAEMDLQNGRVSGIDEAIEEIKSRYDL | failed |
| MGHHHHHHSHMGEIESYCNKELGPLPTKAPTLSKNVLDLFSLKGKVASVTGSSGGIGWAVAEAYAQAGADVAIWYNSHPADEKAEHLQKTYGVHSKAYKCNISDPKSVEETISQQEKDFGTIDVFVANAGVTWTQGPEIDVDNYDSWNKIISVDLNGVYYCSHNIGKIFKKNGKGSLIITSSISGKIVNIPQLQAPYNTAKAACTHLAKSLAIEWAPFARVNTISPGYIDTDITDFASKDMKAKWWQLTPLGREGLTQELVGGYLYLASNASTFTTGSDVVIDGGYTCP | failed |
| MPTLGFRFRAHTDEQTLRALKAQLKLACEVYNTLRWADIYFYQRDGKGLTQTELRQLALDLRKQDDEYKQVYSQVVQQIADRYYEARQRFFEGLARFPKEKKPHKYYSLVYPQYGWKILQVREIRKGSKKKLITLKLSNLGVFKVIVHRDFPLDKVKRVVVKLTRSERIYITFVVEGYEFPKLPNTGKVVAIDVGVEKLLVTSDSEYFPNLRPLEKALWKVKHLHRELSRKKFLSNNWFKAKVKLARAYEHLKNLRTDLYMKLGKWFAEHYDVVVMEDIHVKQLIGKSLRSLRRRLSDVAFSELRDLIKYQLEKYGKKLILVNPAYTSKTCARCGYVKEDLSLSDRVFVCSNCGWIADRDYNASLNILRGSGSERSLVPVELRPLPVPALRYWHGRAVKLEHHHHHH | failed |
| MKQPTLAVIMTCHNRRNTTLACLQALYQQKNHFDVYLTDDGSTDGTAEFIKAEYPDVKIFQGDGNLFWVGGMHLAFGEAIKNQYDYYLWLNDDTFLEADALEKLLQVHENLAVEGYGQSIVVGSTQDPITKQATYGGAVKSKKWYSNKFEFLEPTSDVQKCDAMYGNCVLIPHSVTLKVGNIDTAFIHSLGDLDYALRARNLGLEHHHHHH | failed |
| MWTTNIIKTPRGKFEYFLKGEGPPLCVTHLYSEYNDNGNTFANPFTDHYSVYLVNLKGCGNSDSAKNDSEYSMTETIKDLEAIREALYINKWGFAGHSAGGMLALVYATEAQESLTKIIVGGAAASKEYASHKDSIYCSKNVKFNRIVSIMNALNDDSTVQEERKALSREWALMSFYSEEKLEEALKLPNSGKTVGNRLNYFRQVEYKDYDVRQKLKFVKIPSFIYCGKHDVQCPYIFSCEIANLIPNATLTKFEESNHNPFVEEIDKFNQFVNDTL | not failed |
| MSTTDDSYIVVNNEAAGKVSLKEKWWHVLDTYKVGIIPVPLFVLAGVLIGIDCLSGKLPSDIVVMVATLAFFGFACGEFGKRLPIIGKMGAAAICATFIPSAMVHYGLLPDVVVESTTKFYKSTNILYLYICCIIVGSIMSMNRQTLIQGFMRIFFPMLCGEIAGMLVGMGVGIALGLDPFQIFFFLILPIMAGGVGEGAIPLSIGYATILHMDQGVALGRVLPIVMLGSLTAIILAGVLNQLGKRYPHLTGEGELMPNKGNNLGGSESSAPASAFSGKADVTTIASGALLAILLYMVGMLGHKMIGLPAPVGMLFAAVVVKLAHGVSPKMLEGSQVVYKFFQTSVTYPILFAVGVAITPWQELVNAFTIQNLLVIISTVVTLVGTGFLVGRKIGMHPIDVAIISCCQSGQGGTGDVAILTAGNRMMLMPFAQIATRIGGAINVSISLLVLANFLV | failed |
| MKETTIYGRLVMAVKNTAQVVIGGKIITLGGYESEEYFQKVASYINNKIAELSEMPGYTRQPVETKHTLLSLNVTDDYFKAKKQAEIFEQDLQQKDQEMYELKHELIALRMKIEETEKNAQEAQQQKELLEGKVKELNDEIDKLLK | not failed |
| MTKDRQIKKTKTAIYSAFIALLQKKEYSKITVRDMITLANVGRSTFYAHYESKEMLLKELCEELFHHLFRQKRNVTFEDYLVHILKHFEQNKDSIATLLLSNDPYFLLRFKNELEHDVYPNLRCKYIDKTTIPEVFLKQFVLSSFIETLKWWLHQRQRMSANELLKYYLELIK | failed |

From a protein production outcome set (Wang et al. 2014)
